Experimental data as given in paper PMC11549089.
Several values for one entry are separate records, joined by “and”; a condition that tells them apart may be missing. Equal entries are not always repeated.

Molecular target: influenza A virus RNA polymerase (FluAPol) heterotrimer of human influenza A/NT/60/1968 (H3N2) (human influenza A/NT/60/1968 (H3N2) virus) (UniProt P03429)
Assay: cryo-EM structure

influenza A virus RNA polymerase (FluAPol) heterotrimer of human influenza A/NT/60/1968 (H3N2) (from UniProt P03429) (complex)
stoichiometry N: 2 and 6
